Experimental data published in patent EP0132021B1, “TGF polypeptides, antigenic oligopeptides derived therefrom and antibodies produced therefrom” (Todaro, George Joseph, priority 1983, dated 1985).

Experiments:
[1] = molecular target: T1, tyrosine-specific protein kinase (Homo sapiens, UniProt P00533); assay: Stimulation of tyrosine-specific protein kinase (phosphorylation of synthetic angiotensinyl peptide substrate); assay type: biochemical
T1 construct: endogenous in cells; host or cells: human tumor cell membranes (said in the general description, not in the assay sentence)
Text: A consequence of TGF or EGF binding to the EGF membrane receptors is the stimulation of phosphorylation of tyrosine residues of synthetic peptides or endogenous substrates (Pike et al. (1982) J. Biol. Chem. 257, pp. 14628-14631).

[2] = molecular target: T2, EGF receptor sites on A431 human carcinoma cells (Homo sapiens, UniProt P00533); assay: 125I-EGF radioreceptor (binding competition) assay on formalin-fixed A431 cells
T2 construct: Human epidermoid A431 cells have in excess of 10⁶ EGF receptors per cell; endogenous in cells; host or cells: A431 human epidermoid carcinoma cells (formalin-fixed in A1)
Description: Purified EGF was labeled with Na¹²⁵I by a modification of the chloramine-T method as described in DeLarco et al. (1978) Proc. Natl. Acad. Sci. USA 75, pp. 4001-4005. The ¹²⁵I-EGF binding assay was performed on subconfluent monolayers of formalin-fixed A431 human carcinoma cells as previously described (in DeLarco et al. (1980) J. of Biol. Chem. 255, pp. 3685-3690). The fixed cells were washed twice with 0.5 ml of binding buffer (Dulbecco's modified Eagle's medium containing 1 mg/ml of bovine serum albumin and 50 mM 2-[bis(2-hydroxyethyl)amino]ethanesulfonic acid, pH 6.8). Competitions were initiated by the addition of 0.2 ml of binding buffer containing 0.4 ng of ¹²⁵I-EGF with or without potential inhibitor. After incubation for 1 h at 22°C, the specifically bound ¹²⁵I-EGF was determined. The TGF content was expressed by its degree of inhibition of the binding of ¹²⁵I-EGF to the EGF receptor. One EGF-competing activity unit is defined as the amount of protein that inhibits the binding of ¹²⁵I-EGF to its receptor by 50%.
TGF was quantitated in a radioreceptor assay based on receptor crossreactivity with mouse submaxillary gland epidermal growth factor (mEGF). […]

NRK cells = assay: Soft agar transforming assay with fetal bovine serum and TGF-beta; assay type: cell-based, rat; conditions: in the absence of TGF-beta
Text: Synthetic rTGF prepared in accordance with this Example was compared with natural rTGF in three assays for biological properties of the putative transforming growth factor.

[3] = after oxidation and regeneration, prior to purification

tyrosine-specific protein kinase activity when compared to the natural rTGF-I [1, 3]	EGF-radioreceptor activity when compared to the natural rTGF-I [2, 3]	EC50 ([1]; read-out: half maximal activity, stimulation of phosphorylation of the synthetic angiotensinyl peptide substrate) [nM]	IC50 ([2]; A431 human carcinoma cells, read-out: concentration required for 50% inhibition of 125I-EGF binding) [nM]	Substance	transformation of NRK cells in culture (NRK cells)
40-50%	40-50%	–	–	regenerated, crude rTGF-I: crude synthetic rTGF oxidized and regenerated by the mixed disulfide method, prior to any purification	–
–	–	0.3	4.1	synthetic rTGF: rat TGF made by stepwise solid-phase chemical synthesis, oxidized and purified to homogeneity	does not produce such an effect
